# Laboratory results published in patent US20230226096A1 (Orna Therapeutics, Inc., priority 2020, published 2023).
# B1: Farmington virus (nucleic acid)
# DNA: ACGACGCATAAGCAGAGAAACATAAGAGACTATGTTCATAGTCACCCTGTATTCATTATTGACTTTTATGACCTATTATTAGACCCTTCACGGGTAAATCCTTCTCCTTGCAGTTCTCGCCAAGTACCTCCAAAGTCAGAACG
# B2: Human rhinovirus 1 (nucleic acid, listed as Rhinovirus sp.)
# DNA: TTAAAACTGGGTGTGGGTTGTTCCCACCCACACCACCCAATGGGTGTTGTACTCTGTTATTCCGGTAACTTTGTACGCCAGTTTTTCCCTCCCCTCCCCATCCTTTTACGTAACTTAGAAGTTTTAAATACAAGACCAATAGTAGGCAACTCTCCAGGTTGTCTAAGGTCAAGCACTTCTGTTTCCCCGGTTGATGTTGATATGCTCCAACAGGGCAAAAACAACAGATACCGTTATCCGCAAAGTGCCTACACAGAGCTTAGTAGGATTCTGAAAGATCTTTGGTTGGTCGTTCAGCTGCATACCCAGCAGTAGACCTTGCAGATGAGGCTGGACATTCCCCACTGGTAACAGTGGTCCAGCCTGCGTGGCTGCCTGCGCACCTCTCATGAGGTGTGAAGCCAAAGATCGGACAGGGTGTGAAGAGCCGCGTGTGCTCACTTTGAGTCCTCCGGCCCCTGAATGCGGCTAACCTTAAACCTGCAGCCATGGCTCATAAGCCAATGAGTTTATGGTCGTAACGAGTAATTGCGGGATGGGACCGACTACTTTGGGTGTCCGTGTTTCACTTTTTCCTTTATTAATTGCTTATGGTGACAATATATATATTGATATATATTGGCATC
# B3: EV22 (nucleic acid)
# DNA: CCTTATAACCCGACTTGCTGAGCTTCTATAGGAAAAAACCCTTTCCCAGCCTTGGGGTGGCTGGTCAATAAAAACCCCCATAGTAACCAACACCTAAGACAATTTGATCAACCCTATGCCTGGTCCCCACTATTCGAAGGCAACTTGCAATAAGAAGAGTGGAACAAGGATGCTTAAAGCATAGTGTAAATGATCTTTTCTAACCTGTATTATGTACAGGGTGGCAGATGGCGTGCCATAAATCTATTAGTGGGATACCACGCTTGTGGACCTTATGCCCACACAGCCATCCTCTAGTAAGTTTGTAAAATGTCTGGTGAGATGTGGGAACTTATTGGAAACAACAATTTGCTTAATAGCATCCTAGTGCCAGCGGAACAACATCTGGTAACAGATGCCTCTGGGGCCAAAAGCCAAGGTTTGACAGACCCATTAGGATTGGTTTCAAAACCTGAATTGTTGTGGAAGATATTCAGTACCTATCAATCTGGTAGTGGTGCAAACACTAGTTGTAAGGCCCACGAAGGATGCCCAGAAGGTACCCGCAGGTAACAAGAGACACTGTGGATCTGATCTGGGGCCAACTACCTCTATCAGGTGAGTTAGTTAAAAAACGTCTAGTGGGCCAAACCCAGGGGGGATCCCTGGTTTCCTTTTATTGTTAATATTGACATT
# B4: Hubei tombus-like virus 9 (nucleic acid)
# DNA: GGACCATCCAGGCAGGTGTAGGCTAGTACCCTCACCTGACCTGTCGCGATGTTTGGCTTTGTGAGGCTTGTGGGAGGATCCCTTGGCCCATGCATTGCTGCTGTCATCGTGAAAAATGTTGTATGCTCGCACCTGGCGTGGAGGAAACGGCATTTGACGGATGCTAAGGAGGATTTGAAGGTCCTCAACTCCCATGCCTTATTACAAGTCCCCTTTCCTTCAAGCTTCGAGCCCACGTCTGTGACGAGCAGAGGTGAGGTTGGAGTCAAGAGGAGTCCTATTCAAGCTGTTCGCAGCAAGAACCATAAAACTTTCATTGCTCAATGGGCAAGAGCGGCTAAGGCTCGGTTCTCGTTTGCACGACAGTGTGAGCGGAGCCCTGTAAATGTCGCGGCCCTTCATCGGTGGTTTGCATCGGAGTTTAAGAAAATTGGCATGAACTTGCTCCAGGTTTCGTACGTGATCGATGAGGTTGTTGAACTTAGTTTGGAACCAACGTATGAGCGTATGGTGTCCGAAACTAAGAAGCAATTCCGTCATCGGGCACGTATGGAATACTACAACGAGAAAAAATGCCTTGAAAAGATCCACTAGGAACGC
# B5: Megirivirus E (nucleic acid)
# DNA: GCTTGGCAACCTCATATCGTTACTCTGCCGACCAGTCTGGGTCGTGTGGCCACACAATGGGATTCGTTCTGTTGTGTAGAGTCACATGGCATTACTGGGCTGATCGGTGGGGATCCGTTGCCACCCCTAAACCCTTACATTTACTGGACTGCTTTTCTTGGCCCCGGAATGATTCGCTCACCCGCGATGAGGACTGTTGTTCTTATTATGGCAGGATTACGCGTCTGGTCCGCGTAAGGACTAATTCCTATGTTTATACGTTACTACCTTGTTCTGAACGGTGGGCGCCACCCCGCCTAGTAGGATCCTGGCTTATCGTGTAGACCTCTAGGGACCACATTAGCTAGAGTGTAGGCTGCTATGGATGGAGTAGTGACCCCTTTTTGGGTATCACTCTCTAAGACTCCGGAATGTGTCATAGTACGCTGGAAATCCTTACTTGTTTTTCCATGAGGGGGAGGTGGTGCTGAAATATTGCAAGCCACCCCTCGGTTAAAACAGTTTGGTGCCGCTTATGCCATATTACCGCCCCTTGTAGTTGGGCTGTTTTTGCAGCTCCGGGTTAGTAGAGTACCATAGTGGACGCGGTGTTGGGAATCACCGCCTTGGCTGCACACTGCTTGATAGAGCTGCGGCTGGTCAAGCTAATTGTGGTATAACCAGTTGATTTGGCAT
# B6: Feline infectious peritonitis virus (nucleic acid)
# DNA: ACTTTTAAAGTAAAGTGAGTGTAGCGTGGCTATAACTCTTCTTTTACTTTAACTAGCCTTGTGCTAGATTTGTCTTCGGACACCAACTCGAACTAAACGAAATATTTGTCTCTCTATGAAACCATAGAAGACAAGCGTTGATTATTTCACCAGTTTGGCAATCACTCCTAGGAACGGGGTTGAGAGAACGGCGCACCAGGGTTCCGTCCCTGTTTGGTAAGTCGTCTAGTATTAGCTGCGGCGGTTCCGCCCGTCGTAGTTGGGTAGACCGGGTTCCGTCCTGTGATCTCCCTCGCCGGCCGCCAGGAGA
# B7: Hubei sobemo-like virus 3 (nucleic acid)
# DNA: GAGATGTTTGCGTGGGCCGTTGCGCTGCGGGCGGCCCACCTCCCTACGGGGACCGTGAGACACCGCTGGGGAAGGCCCCCACCCCCGGCCAAGGGGATCCTGCCGAGAGGCAGGAGAAAGAGGCCCAGCCCTCTGGGGCGCCTTTAGGGGTGCCTGGGAGGGAAGTACCCGAGCCGGGCGGCCGGTCGGGTGCGGCTGTGCAGTTCGAGGCTAACCGTAAGGAAGGCCTGAGCTGCCTCGGCTTGTCGGAAAGGAAGACGAAGGCACTTATCAAGGCTTTCAGGAAGCAGGAGCGCAATTACAGCGCGCGCCGTGCGGCCTGGATTAACCGCATTTGGCCG
# B8: Human TMEV-like cardiovirus (nucleic acid, listed as Cardiovirus sp.)
# DNA: TCCGACGTGGTTGGAATTAACATCTTTTCCGACGAAAGTGCTATTATGCCTCCCCGATTGTGTGATGCTTTCTGCCCTGCTGGGCGGAGCGTCCTCGGGTTGAGAAACCTTGAATCTTTTCCTTTGGAGCCTTGGCTCCCCCGGTCTAAGCCGCTTGGAATATGACAGGGTTATTTTCCAAACTCTTTATTTCTACTTTCATGGGTTCTATCCATGAAAAGGGTATGTGTTGCCCCTTCCTTCTTTGGAGAATCTGCGCGGCGGTCTTTCCGTCTCTCAACAGGCGTGGATGCAACATGCCGGAAACGGTGAAGAAAACAGTTTTCTGTGGAAATTTAGAGTGGACATCGAAACAGCTGTAGCGACCTCACAGTAGCAGCGGATTCCCCTCTTGGCGACAAGAGCCTCTGCGGCCAAAAGCCCCGTGGATAAGATCCACTGCTGTGAGCGGTGCAACCCCAGCACCCTGGTTCGATGGCCATTCTCTATGGAACCAGAAAATGGTTTTCTCAAGCCCTCCGGTAGAGAAGCCAAGAATGTCCTGAAGGTACCCCGCGCGCGGGATCTGATCAGGAGACCAATTGGCAGTGCTTTACGCTGCCACTTTGGTTTAAAAACTGTCACAGCTTCTCCAAACCAAGTGGTCTTGGTTTTCCAATTTTGTTGACTGACAAT
# B9: Hubei zhaovirus-like virus 1 (nucleic acid)
# DNA: GTGCAGGATGGCCTTTCCCATCTTAAGTGGTTTGTAGGATTTCGTGGGTCCATACCCCCCGATTTCTTGGTACGTATTCCATGCACGGAGAATACGACCAAAACTCTTATTTCAAAAAATATTATTTTTTACTCTTGTGGGCTGAGTGCGACCCACCAGTTCCAGCTTAGCAACCTGGAAGTTGTTGGAGATTTATGGAACCAAATTACACATGCGTGGAGTGCCGCCACTCCGTATCTGTTCACTCATTACGCGATTAAGTTCTGCGACGAGACGAGCGAA
# B10: Hubei tombus-like virus 32 (nucleic acid)
# DNA: TTCGGGTTTACCCGCGTAAGCGGCCACACTGACTGGTTGTCGGTGTTGAATTTGTATACCAGATGAGGAGACGTTACCACCGTCTCGGCAGTGCTACGTCTGGGAAAGGACTGTGATAGTGGACAGTCCTACCGTCTTTAGATACATTGCGTTGTGTATAGCCCGGGAGGGATTAACTAATAGCAACGCAATGCACACGGCGGTTCGGATTTGCTTGACTGATGGAAAGACATCTAAGTTCTAATTGAACC
# B11: Avian infectious bronchitis virus (nucleic acid)
# DNA: ACTTAAGATAGATATTAATATATATCTATTACACTAGCCTTGCGCTAGATTTTTAACTTAACAAAACGGACTTAAATACCTACAGCTGGTCCTCATAGGTGTTCCATTGCAGTGCACTTTAGTGCCCTGGATGGCACCTGGCCACCTGTCAGGTTTTTGTTATTAAAATCTTATTGTTGCTGGTATCACTGCTTGTTTTGCCGTGTCTCACTTTATACATCTGTTGCTTGGGCTACCTAGTGTCCAGCGTCCTACGGGCGTCGTGGCTGGTTCGAGTGCGAGGAACCTCTGGTTCATCTAGCGGTAGGCGGGTGTGTGGAAGTAGCACTTCAGACGTACCGGTTCTGTTGTGTGAAATACGGGGTCACCTCCCCCCACATACCTCTAAGGGCTTTTGAGCCTAGCGTTGGGCTACGTTCTCGCATAAGGTCGGCTATACGACGTTTGTAGGGGGTAGTGCCAAACAACCCCTGAGGTGACAGGTTCTGGTGGTGTTTAGTGAGCAGACATACAATAGACAGTGACAAC
# System: HEK293 cells
# Assay type: cell-based, human
# Conditions: luminescence from secreted Gluc in supernatant 24 hours after transfection of HEK293 cells; circular RNA encoding Gluc with the named IRES (UTR truncated to 675 nt)
row,Molecule,Expression
1,B1,1.22E+05
2,B2,7.40E+07
3,B3,1.95E+07
4,B4,9.28E+04
5,B5,1.10E+07
6,B6,1.35E+05
7,B7,1.17E+05
8,B8,4.48E+07
9,B9,1.03E+05
10,B10,9.23E+04
11,B11,2.84E+05
